Measured values published in the supplement of paper PMC5998384.

Legend:
HeLa Kyoto [1] = test: melting temperature (median over replicates), in situ; higher = more thermally stable
HeLa Kyoto [2] = test: solubility in G1/S (NP-40 vs SDS abundance) (log2 ratio); higher = more soluble; conditions: cell cycle stage: G1/S
HeLa Kyoto [3] = test: solubility change mitosis vs G1/S (difference of NP-40 vs SDS log2 ratios) (log2 ratio difference); higher = more soluble in mitosis
HeLa Kyoto [4] = test: thermal stability score vs G1/S (z-score of summed log2 fold changes over temperatures); higher = more thermally stable than in G1/S
[5] = cell cycle stage: early G1 (4.5 h after nocodazole release)
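Wherever melting temperature (median over replicates), in situ is given: HeLa Kyoto cells synchronized by double thymidine or nocodazole block, proteins quantified by TMT10plex mass spectrometry, three independent biological replicates.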
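Wherever solubility change mitosis vs G1/S (difference of NP-40 vs SDS log2 ratios) is given: synchronized HeLa Kyoto cells (double thymidine block for G1/S, nocodazole release for mitosis), protein amounts in NP-40 versus SDS lysates quantified by mass spectrometry, three biological replicates.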
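Wherever solubility in G1/S (NP-40 vs SDS abundance) is given: HeLa Kyoto cells arrested at G1/S by double thymidine block, proteins quantified by TMT10plex mass spectrometry in mild NP-40 versus SDS extracts, three biological replicates.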
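Wherever thermal stability score vs G1/S (z-score of summed log2 fold changes over temperatures) is given: synchronized HeLa Kyoto cells, proteins quantified by TMT10plex mass spectrometry, three biological replicates, mitosis taken 0.5 h after nocodazole release, G1/S directly after double thymidine block.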

Substance	melting temperature (HeLa Kyoto [1]; cell cycle stage: G1/S)	melting temperature (HeLa Kyoto [1]; cell cycle stage: mitosis)	solubility in G1/S (log2) (HeLa Kyoto [2])	solubility change mitosis (log2) (HeLa Kyoto [3])	thermal stability score (HeLa Kyoto [4]; [5])	thermal stability score (HeLa Kyoto [4]; cell cycle stage: mitosis)
MEELLRRELGCSSVRATGHSGGGCISQGRSYDTDQGRVFVKVNPKAEARRMFEGEMASLTAILKTNTVKVPKPIKVLDAPGGGSVLVMEHMDMRHLSSHAAKLGAQLADLHLDNKKLGEMRLKEAGTVGRGGGQEERPFVARFGFDVVTCCGYLPQVNDWQEDWVVFYARQRIQPQMDMVEKESGDREALQLWSALQLKIPDLFRDLEIIPALLHGDLWGGNVAEDSSGPVIFDPASFYGHSEYELAIAGMFGGFSSSFYSAYHGKIPKAPGFEKRLQLYQLFHYLNHWNHFGSGYRGSSLNIMRNLVK [FN3KRP]	61.1 °C	58.3 °C	0.12	0.00242	-1.05	-2.45
MAAAPPLSKAEYLKRYLSGADAGVDRGSESGRKRRKKRPKPGGAGGKGMRIVDDDVSWTAISTTKLEKEEEEDDGDLPVVAEFVDERPEEVKQMEAFRSSAKWKLLGGHNEDLPSNRHFRHDTPDSSPRRVRHGTPDPSPRKDRHDTPDPSPRRARHDTPDPSPLRGARHDSDTSPPRRIRHDSSDTSPPRRARHDSPDPSPPRRPQHNSSGASPRRVRHDSPDPSPPRRARHGSSDISSPRRVHNNSPDTSRRTLGSSDTQQLRRARHDSPDLAPNVTYSLPRTKSGKAPERASSKTSPHWKESGASHLSFPKNSKYEYDPDISPPRKKQAKSHFGDKKQLDSKGDCQKATDSDLSSPRHKQSPGHQDSDSDLSPPRNRPRHRSSDSDLSPPRRRQRTKSSDSDLSPPRRSQPPGKKAAHMYSGAKTGLVLTDIQREQQELKEQDQETMAFEAEFQYAETVFRDKSGRKRNLKLERLEQRRKAEKDSERDELYAQWGKGLAQSRQQQQNVEDAMKEMQKPLARYIDDEDLDRMLREQEREGDPMANFIKKNKAKENKNKKVRPRYSGPAPPPNRFNIWPGYRWDGVDRSNGFEQKRFARLASKKAVEELAYKWSVEDM [BUD13]	52.9 °C	53 °C	-0.884	0.878	0.0865	-0.687
AKAP13	50.6 °C	49.6 °C	-0.0395	-0.118	-0.167	1.43
MSSLHKSRIADFQDVLKEPSIALEKLRELSFSGIPCEGGLRCLCWKILLNYLPLERASWTSILAKQRELYAQFLREMIIQPGIAKANMGVSREDVTFEDHPLNPNPDSRWNTYFKDNEVLLQIDKDVRRLCPDISFFQRATDYPCLLILDPQNEFETLRKRVEQTTLKSQTVARNRSGVTNMSSPHKNSVPSSLNEYEVLPNGCEAHWEVVERILFIYAKLNPGIAYVQGMNEIVGPLYYTFATDPNSEWKEHAEADTFFCFTNLMAEIRDNFIKSLDDSQCGITYKMEKVYSTLKDKDVELYLKLQEQNIKPQFFAFRWLTLLLSQEFLLPDVIRIWDSLFADDNRFDFLLLVCCAMLMLIREQLLEGDFTVNMRLLQDYPITDVCQILQKAKELQDSK [TBC1D13]	53.2 °C	54.1 °C	0.0698	-0.145	-0.565	0.385
MALDVKSRAKRYEKLDFLGEGQFATVYKARDKNTNQIVAIKKIKLGHRSEAKDGINRTALREIKLLQELSHPNIIGLLDAFGHKSNISLVFDFMETDLEVIIKDNSLVLTPSHIKAYMLMTLQGLEYLHQHWILHRDLKPNNLLLDENGVLKLADFGLAKSFGSPNRAYTHQVVTRWYRAPELLFGARMYGVGVDMWAVGCILAELLLRVPFLPGDSDLDQLTRIFETLGTPTEEQWPDMCSLPDYVTFKSFPGIPLHHIFSAAGDDLLDLIQGLFLFNPCARITATQALKMKYFSNRPGPTPGCQLPRPNCPVETLKEQSNPALAIKRKRTEALEQGGLPKKLIF [CDK7]	51 °C	51 °C	0.167	-0.142	0.106	1.13
MAAQRPLRVLCLAGFRQSERGFREKTGALRKALRGRAELVCLSGPHPVPDPPGPEGARSDFGSCPPEEQPRGWWFSEQEADVFSALEEPAVCRGLEESLGMVAQALNRLGPFDGLLGFSQGAALAALVCALGQAGDPRFPLPRFILLVSGFCPRGIGFKESILQRPLSLPSLHVFGDTDKVIPSQESVQLASQFPGAITLTHSGGHFIPAAAPQRQAYLKFLDQFAE [OVCA2]	49.8 °C	51.5 °C	0.171	0.0456	-1.18	-0.0698
MGTRDDEYDYLFKVVLIGDSGVGKSNLLSRFTRNEFNLESKSTIGVEFATRSIQVDGKTIKAQIWDTAGQERYRAITSAYYRGAVGALLVYDIAKHLTYENVERWLKELRDHADSNIVIMLVGNKSDLRHLRAVPTDEARAFAEKNNLSFIETSALDSTNVEEAFKNILTEIYRIVSQKQIADRAAHDESPGNNVVDISVPPTTDGQKPNKLQCCQNL [RAB11B]	57.1 °C	57.5 °C	0.136	-0.0727	0.344	-0.699
TPM4	55.8 °C		0.907	0.532	-0.98	-3.48
MAAGPISERNQDATVYVGGLDEKVSEPLLWELFLQAGPVVNTHMPKDRVTGQHQGYGFVEFLSEEDADYAIKIMNMIKLYGKPIRVNKASAHNKNLDVGANIFIGNLDPEIDEKLLYDTFSAFGVILQTPKIMRDPDTGNSKGYAFINFASFDASDAAIEAMNGQYLCNRPITVSYAFKKDSKGERHGSAAERLLAAQNPLSQADRPHQLFADAPPPPSAPNPVVSSLGSGLPPPGMPPPGSFPPPVPPPGALPPGIPPAMPPPPMPPGAAGHGPPSAGTPGAGHPGHGHSHPHPFPPGGMPHPGMSQMQLAHHGPHGLGHPHAGPPGSGGQPPPRPPPGMPHPGPPPMGMPPRGPPFGSPMGHPGPMPPHGMRGPPPLMPPHGYTGPPRPPPYGYQRGPLPPPRPTPRPPVPPRGPLRGPLPQ [SF3B4]	50.9 °C	51.3 °C	0.275	0.162	-2.15	-2.49
MAAPEPLRPRLCRLVRGEQGYGFHLHGEKGRRGQFIRRVEPGSPAEAAALRAGDRLVEVNGVNVEGETHHQVVQRIKAVEGQTRLLVVDQETDEELRRRQLTCTEEMAQRGLPPAHDPWEPKPDWAHTGSHSSEAGKKDVSGPLRELRPRLCHLRKGPQGYGFNLHSDKSRPGQYIRSVDPGSPAARSGLRAQDRLIEVNGQNVEGLRHAEVVASIKAREDEARLLVVDPETDEHFKRLRVTPTEEHVEGPLPSPVTNGTSPAQLNGGSACSSRSDLPGSDKDTEDGSAWKQDPFQESGLHLSPTAAEAKEKARAMRVNKRAPQMDWNRKREIFSNF [SLC9A3R2]	53.6 °C	54.2 °C	0.422	-0.0543	-1.69	-3.57
MEEKPGQPQPQHHHSHHHPHHHPQQQQQQPHHHHHYYFYNHSHNHHHHHHHQQPHQYLQHGAEGSPKAQPKPLKHEQKHTLQQHQETPKKKTGYGELNGNAGEREISLKNLSSDEATNPISRVLNGNQQVVDTSLKQTVKANTFGKAGIKTKNFIQKNSMDKKNGKSYENKSGENQSVDKSDTIPIPNGVVTNNSGYITNGYMGKGADNDGSGSESGYTTPKKRKARRNSAKGCENLNIVQDKIMQQETSVPTLKQGLETFKPDYSEQKGNRVDGSKPIWKYETGPGGTSRGKPAVGDMLRKSSDSKPGVSSKKFDDRPKGKHASAVASKEDSWTLFKPPPVFPVDNSSAKIVPKISYASKVKENLNKTIQNSSVSPTSSSSSSSSTGETQTQSSSRLSQVPMSALKSVTSANFSNGPVLAGTDGNVYPPGGQPLLTTAANTLTPISSGTDSVLQDMSLTSAAVEQIKTSLFIYPSNMQTMLLSTAQVDLPSQTDQQNLGDIFQNQWGLSFINEPSAGPETVTGKSSEHKVMEVTFQGEYPATLVSQGAEIIPSGTEHPVFPKAYELEKRTSPQVLGSILKSGTTSESGALSLEPSHIGDLQKADTSSQGALVFLSKDYEIESQNPLASPTNTLLGSAKEQRYQRGLERNDSWGSFDLRAAIVYHTKEMESIWNLQKQDPKRIITYNEAMDSPDQ [NUFIP2]	53.8 °C	52.4 °C	-0.731	0.593	-0.0647	-0.912
MEEMSGESVVSSAVPAAATRTTSFKGTSPSSKYVKLNVGGALYYTTMQTLTKQDTMLKAMFSGRMEVLTDSEGWILIDRCGKHFGTILNYLRDGAVPLPESRREIEELLAEAKYYLVQGLVEECQAALQNKDTYEPFCKVPVITSSKEEQKLIATSNKPAVKLLYNRSNNKYSYTSNSDDNMLKNIELFDKLSLRFNGRVLFIKDVIGDEICCWSFYGQGRKIAEVCCTSIVYATEKKQTKVEFPEARIYEETLNILLYEAQDGRGPDNALLEATGGAAGRSHHLDEDEERERIERVRRIHIKRPDDRAHLHQ [KCTD10]		51.6 °C	-1.29	0.647	0.937	1.24
MSVGCACPGCSSKSFKLYSPKEPPNGNAFPPFHPGTMLDRDVGPTPMYPPTYLEPGIGRHTPYGNQTDYRIFELNKRLQNWTEECDNLWWDAFTTEFFEDDAMLTITFCLEDGPKRYTIGRTLIPRYFRSIFEGGATELYYVLKHPKEAFHSNFVSLDCDQGSMVTQHGKPMFTQVCVEGRLYLEFMFDDMMRIKTWHFSIRQHRELIPRSILAMHAQDPQMLDQLSKNITRCGLSNSTLNYLRLCVILEPMQELMSRHKTYSLSPRDCLKTCLFQKWQRMVAPPAEPTRQQPSKRRKRKMSGGSTMSSGGGNTNNSNSKKKSPASTFALSSQVPDVMVVGEPTLMGGEFGDEDERLITRLENTQFDAANGIDDEDSFNNSPALGANSPWNSKPPSSQESKSENPTSQASQ [LDB1]	54.2 °C	55.8 °C	-0.0659	-0.0611	-3.74	-2.44
MWLKVGGLLRGTGGQLGQTVGWPCGALGPGPHRWGPCGGSWAQKFYQDGPGRGLGEEDIRRAREARPRKTPRPQLSDRSRERKVPASRISRLANFGGLAVGLGLGVLAEMAKKSMPGGRLQSEGGSGLDSSPFLSEANAERIVQTLCTVRGAALKVGQMLSIQDNSFISPQLQHIFERVRQSADFMPRWQMLRVLEEELGRDWQAKVASLEEVPFAAASIGQVHQGLLRDGTEVAVKIQYPGIAQSIQSDVQNLLAVLKMSAALPAGLFAEQSLQALQQELAWECDYRREAACAQNFRQLLANDPFFRVPAVVKELCTTRVLGMELAGGVPLDQCQGLSQDLRNQICFQLLTLCLRELFEFRFMQTDPNWANFLYDASSHQVTLLDFGASREFGTEFTDHYIEVVKAAADGDRDCVLQKSRDLKFLTGFETKAFSDAHVEAVMILGEPFATQGPYDFGSGETARRIQDLIPVLLRHRLCPPPEETYALHRKLAGAFLACAHLRAHIACRDLFQDTYHRYWASRQPDAATAGSLPTKGDSWVDPS [ADCK4]	50.7 °C	49.8 °C	0.00454	0.0635	-0.115	0.518
FASN	52.1 °C	51.8 °C	-0.0375	-0.203	-0.721	0.266
